From PMC7199733 (Cell, 2020) come the findings set out here.

In assay [1] the target is MERS VHH-55 (His-tagged, mammalian expression) (llama). Kind of assay: SPR. For orientation: In SPR one partner is held on a chip, and binding of the other changes the refractive index at the surface.
In assay [2] the target is DPP4 protein (recombinant, soluble) (UniProt P27487 40-766). Kind of assay: BLI. In general terms: BLI is a label-free optical method that tracks binding on a fibre tip over time.
The target of assay [3] is MERS-CoV RBD (crystallised, tag and glycans removed) (MERS-CoV England1, UniProt K9N5Q8).
Another assay deals with MERS-CoV RBD protein (MERS-CoV England1, UniProt K9N5Q8).
The target in a further assay is MERS-CoV S1 protein (MERS-CoV England1, UniProt K9N5Q8).
Sequence of MERS-CoV S1 protein (K9N5Q8 18-751): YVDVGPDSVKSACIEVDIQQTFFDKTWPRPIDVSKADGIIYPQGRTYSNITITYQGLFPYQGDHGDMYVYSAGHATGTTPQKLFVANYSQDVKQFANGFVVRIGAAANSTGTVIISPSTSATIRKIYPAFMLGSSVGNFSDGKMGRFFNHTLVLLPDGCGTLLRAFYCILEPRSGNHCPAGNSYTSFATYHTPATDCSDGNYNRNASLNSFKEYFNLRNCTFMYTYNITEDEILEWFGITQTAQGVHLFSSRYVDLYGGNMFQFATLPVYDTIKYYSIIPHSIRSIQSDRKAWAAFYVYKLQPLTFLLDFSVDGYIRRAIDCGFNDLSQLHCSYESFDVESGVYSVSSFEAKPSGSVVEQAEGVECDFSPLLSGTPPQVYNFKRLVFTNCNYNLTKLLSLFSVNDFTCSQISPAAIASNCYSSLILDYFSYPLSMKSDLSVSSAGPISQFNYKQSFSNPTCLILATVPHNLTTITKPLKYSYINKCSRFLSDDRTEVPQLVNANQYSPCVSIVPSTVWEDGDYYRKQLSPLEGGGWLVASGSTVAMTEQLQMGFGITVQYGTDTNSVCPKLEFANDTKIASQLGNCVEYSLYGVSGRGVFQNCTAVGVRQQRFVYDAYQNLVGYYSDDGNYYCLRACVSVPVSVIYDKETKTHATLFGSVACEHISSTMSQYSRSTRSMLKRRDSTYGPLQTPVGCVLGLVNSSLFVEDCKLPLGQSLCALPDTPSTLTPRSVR

Sequence of DPP4 protein (recombinant, soluble) (P27487 40-766): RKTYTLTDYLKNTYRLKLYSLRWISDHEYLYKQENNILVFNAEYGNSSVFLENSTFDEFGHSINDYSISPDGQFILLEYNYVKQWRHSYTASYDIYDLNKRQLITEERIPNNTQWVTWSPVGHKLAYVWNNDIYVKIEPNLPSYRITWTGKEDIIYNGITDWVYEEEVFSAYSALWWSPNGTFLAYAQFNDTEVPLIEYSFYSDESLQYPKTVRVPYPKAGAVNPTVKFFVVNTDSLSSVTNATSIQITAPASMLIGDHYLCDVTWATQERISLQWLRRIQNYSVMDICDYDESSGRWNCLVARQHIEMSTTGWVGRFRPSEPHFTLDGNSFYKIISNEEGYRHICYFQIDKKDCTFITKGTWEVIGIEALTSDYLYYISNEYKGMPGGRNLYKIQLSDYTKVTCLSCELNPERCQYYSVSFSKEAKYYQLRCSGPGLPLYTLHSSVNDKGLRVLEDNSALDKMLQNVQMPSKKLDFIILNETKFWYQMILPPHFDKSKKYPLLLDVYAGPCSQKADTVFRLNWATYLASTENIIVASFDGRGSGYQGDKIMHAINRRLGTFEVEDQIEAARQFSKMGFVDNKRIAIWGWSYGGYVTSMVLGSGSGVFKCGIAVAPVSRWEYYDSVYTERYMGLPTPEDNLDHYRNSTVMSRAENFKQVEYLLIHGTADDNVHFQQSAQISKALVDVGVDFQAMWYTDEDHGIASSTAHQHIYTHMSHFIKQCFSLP

By Kd is commonly meant the equilibrium constant for the complex coming apart. “MERS-CoV RBD protein (from UniProt K9N5Q8 367-589) (domain or fragment)” returned a Kd in assay [1] of 0.0792 nM.

B1: Fc-tagged MERS-CoV RBD (domain or fragment)
chain: EAKPSGSVVEQAEGVECDFSPLLSGTPPQVYNFKRLVFTNCNYNLTKLLSLFSVNDFTCSQISPAAIASNCYSSLILDYFSYPLSMKSDLSVSSAGPISQFNYKQSFSNPTCLILATVPHNLTTITKPLKYSYINKCSRFLSDDRTEVPQLVNANQYSPCVSIVPSTVWEDGDYYRKQLSPLEGGGWLVASGSTVAMTEQLQMGFGITVQYGTDTNSVCPKLE
B1: the binding result in assay [2] is “binds”.

B2: MERS VHH-55 (VHH)
VHH: QVQLQESGGGLVQAGGSLRLSCVASGSIFSINAMDWYRQAPGKQRELVAGITSGGSTNYGDFVKGRFTISRDNAKNTVYLQMDSLKPEDTAVYYCAAEVGGWGPPRPDYWGHGTQVTVSS
Regarding B2, the binding result (in assay [3]; with MERS-CoV RBD protein; with MERS-CoV S1 protein) was “binds” in each case.
